Results on 1 substance are retold here after paper PMC3667720.

This assay concerns the target β-actin (human (endogenous in MDA-MB-231)) (UniProt P60709). The assay can be described thus: FRET or BRET.

Substance “cofilin (from UniProt P23528 1-166) (natural protein)” gave an FRET efficiency (control siRNA, 0 min EGF) of 4.34%; an FRET efficiency (β1 integrin siRNA, 0 min EGF) of 3.85%; an increase in FRET efficiency 3 min after EGF against 0 min (control cells) of 40%.
